# Test results taken from US20240261333A1 (published 2024).
# T1: PRDX2 (human, UniProt P32119 2-198)
# T1 construct: also called NP_005800.3
# T1 sequence (looked up): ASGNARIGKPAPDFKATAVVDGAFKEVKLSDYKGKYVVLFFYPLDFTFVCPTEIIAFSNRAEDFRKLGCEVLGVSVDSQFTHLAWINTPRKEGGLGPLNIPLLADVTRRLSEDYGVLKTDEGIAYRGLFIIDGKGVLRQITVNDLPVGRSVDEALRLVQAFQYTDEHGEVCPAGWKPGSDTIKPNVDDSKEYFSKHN
# T2: PRDX1 (human, UniProt Q06830 2-199)
# T2 construct: also called NP_859048.1
# T2 sequence (looked up): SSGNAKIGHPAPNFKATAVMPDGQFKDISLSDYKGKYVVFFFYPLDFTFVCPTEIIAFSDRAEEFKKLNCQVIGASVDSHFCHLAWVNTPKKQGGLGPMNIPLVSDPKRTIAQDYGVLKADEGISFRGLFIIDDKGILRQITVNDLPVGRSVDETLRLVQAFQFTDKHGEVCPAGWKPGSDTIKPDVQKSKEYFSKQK
# T3: TGM3 (human, UniProt Q08188 2-693, limits assumed)
# T3 construct: also called NP_003236.3
# T3 sequence (looked up): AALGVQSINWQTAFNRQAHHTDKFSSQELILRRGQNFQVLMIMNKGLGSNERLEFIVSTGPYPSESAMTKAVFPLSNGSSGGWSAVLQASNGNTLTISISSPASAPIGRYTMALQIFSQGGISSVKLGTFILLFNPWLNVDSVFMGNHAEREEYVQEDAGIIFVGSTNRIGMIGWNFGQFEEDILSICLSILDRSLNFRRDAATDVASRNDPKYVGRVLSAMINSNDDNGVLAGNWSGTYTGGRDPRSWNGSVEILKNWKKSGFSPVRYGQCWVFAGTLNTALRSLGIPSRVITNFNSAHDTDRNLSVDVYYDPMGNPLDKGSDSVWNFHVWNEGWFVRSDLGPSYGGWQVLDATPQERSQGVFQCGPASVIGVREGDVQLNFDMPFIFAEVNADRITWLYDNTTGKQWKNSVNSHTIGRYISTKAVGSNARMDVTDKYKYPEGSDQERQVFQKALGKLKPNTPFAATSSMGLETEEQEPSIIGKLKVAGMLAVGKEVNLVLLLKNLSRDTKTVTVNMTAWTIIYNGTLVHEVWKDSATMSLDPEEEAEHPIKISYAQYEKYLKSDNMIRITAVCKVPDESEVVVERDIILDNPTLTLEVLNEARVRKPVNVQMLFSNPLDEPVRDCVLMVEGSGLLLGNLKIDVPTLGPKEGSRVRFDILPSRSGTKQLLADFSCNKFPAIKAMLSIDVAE
# T4: PIP (human, UniProt P12273 29-146)
# T4 construct: also called NP_002643.1
# T4 sequence (looked up): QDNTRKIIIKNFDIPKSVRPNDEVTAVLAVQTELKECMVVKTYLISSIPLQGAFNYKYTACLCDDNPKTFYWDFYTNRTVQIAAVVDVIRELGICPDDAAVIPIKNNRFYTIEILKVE
# T5: PSMC2 (human, UniProt P35998 2-433)
# T5 construct: also called NP_002794.1
# T5 sequence (looked up): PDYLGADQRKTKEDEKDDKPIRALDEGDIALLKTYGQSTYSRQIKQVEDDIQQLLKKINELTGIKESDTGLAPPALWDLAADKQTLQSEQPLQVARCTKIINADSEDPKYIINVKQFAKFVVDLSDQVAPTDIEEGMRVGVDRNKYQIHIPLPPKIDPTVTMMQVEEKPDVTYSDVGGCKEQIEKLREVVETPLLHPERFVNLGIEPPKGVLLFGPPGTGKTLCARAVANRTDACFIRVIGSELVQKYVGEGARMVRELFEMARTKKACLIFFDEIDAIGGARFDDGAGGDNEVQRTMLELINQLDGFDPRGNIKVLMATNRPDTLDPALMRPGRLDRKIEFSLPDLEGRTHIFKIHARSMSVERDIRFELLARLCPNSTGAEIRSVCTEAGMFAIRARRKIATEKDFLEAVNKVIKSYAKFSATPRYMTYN
# B1: N-terminal FLAG tagged B3GNT2 (enzyme, human, UniProt Q9NY97 1-397, looked up)
# chain: MSVGRRRIKLLGILMMANVFIYFIMEVSKSSSQEKNGKGEVIIPKEKFWKISTPPEAYWNREQEKLNRQYNPILSMLTNQTGEAGRLSNISHLNYCEPDLRVTSVVTGFNNLPDRFKDFLLYLRCRNYSLLIDQPDKCAKKPFLLLAIKSLTPHFARRQAIRESWGQESNAGNQTVVRVFLLGQTPPEDNHPDLSDMLKFESEKHQDILMWNYRDTFFNLSLKEVLFLRWVSTSCPDTEFVFKGDDDVFVNTHHILNYLNSLSKTKAKDLFIGDVIHNAGPHRDKKLKYYIPEVVYSGLYPPYAGGGGFLYSGHLALRLYHITDQVHLYPIDDVYTGMCLQKLGLVPEKHKGFRTFDIEEKNKNNICSYVDLMLVHSRKPQEMIDIWSQLQSAHLKC
# notes: FLAG-tagged ORF overexpressed in cells; bait of the co-IP, pulled down with mouse anti-FLAG; also called N-FLAG B3GNT2; N-term FLAG; not shown: N-terminal FLAG tag
# B2: C-terminal FLAG tagged B3GNT2 (enzyme, human, UniProt Q9NY97 1-397, looked up)
# chain: B1 chain
# notes: FLAG-tagged ORF overexpressed in cells; bait of the co-IP, pulled down with mouse anti-FLAG; also called C-FLAG B3GNT2; C-term flag; not shown: C-terminal FLAG tag
# B3: C-terminal FLAG tagged B3GNT2 (enzyme, human, UniProt Q9NY97 1-397, looked up)
# chain: B1 chain
# notes: Bait of the co-IP; pulled down from cell lysate with mouse anti-FLAG antibody; also called C-FLAG B3GNT2; C-term flag; not shown: C-terminal FLAG tag
# What was measured:
# [1] = target: RPS15 (human, UniProt P62841 2-145); assay: co-IP/MS, anti-FLAG IP of N-FLAG B3GNT2 cell lysate
# Experimental: (§1) Cells were plated in 10-cm cell culture dishes and grown to 60-80% confluency. For each condition, two biological replicates were harvested for co-IP. Cells were washed with PBS and 4 mL of lysis buffer (20 mM HEPES, 1% Triton X-100, 150 mM NaCl, 1 mM EDTA, and 10% glycerol) containing protease inhibitor cocktail was added. Cells were scraped and lysate was incubated at 4° C. under rotary agitation for 1 h. Lysate was centrifuged at 14,000×g for 10 min at 4° C. Supernatant was transferred to a new tube and an aliquot was taken as the input. […] For Western blots, 10 μg/mL Chicken Anti-FLAG (Aves labs ET-DY100) and IgY control (R&D Systems AB-101-C) antibodies were biotinylated (Thermo Fisher Scientific 90407) and added to the respective conditions. Lysates with antibodies were incubated at 4° C. under rotary agitation overnight. For each mL of lysate, 50 μL of Pierce Protein A/G Magnetic Beads (Mass spectrometry; Thermo Fisher Scientific 88803) or Pierce Streptavidin Magnetic Beads (Western blot; Thermo Fisher Scientific 88817) was washed twice with lysis buffer. Lysates with antibodies were added to the beads and incubated at 4° C. under rotary agitation for 4 h. Beads were washed with lysis buffer 3 times and resuspended in lysis buffer for storage.
# (§2) Magnetic beads were resuspended in 100 mM Tris pH 7.8, reduced, alkylated and digested with trypsin at 37° ° C. overnight. This solution was subjected to solid phase extraction to concentrate the peptides and remove unwanted reagents followed by injection onto a Shimadzu HPLC with fraction collector. Eight fractions were collected and after concentration were injected on a Waters NanoAcquity HPLC equipped with a self-packed Aeris 3 μm C18 analytical column 0.075 mm by 20 cm, (Phenomenex). Peptides were eluted using standard reverse-phase gradients. The effluent from the column was analyzed using a Thermo Orbitrap Elite mass spectrometer (nanospray configuration) operated in a data dependent manner for 54 minutes. The resulting fragmentation spectra were correlated against the known database using Proteome Discover 1.4 (Thermo Fisher Scientific).
# [2] = target: RPL24 (human, UniProt P83731 1-157); assay: as above
# Experimental: as §1, §2
# [3] = target: RPS3A (human, UniProt P61247 2-264); assay: as above
# Experimental: as §1, §2
# [4] = target: RPL14 (human, UniProt P50914 2-215); assay: as above
# Experimental: as §1, §2
# [5] = target: RPL30 (human, UniProt P62888 1-115); assay: as above
# Experimental: as §1, §2
# [6] = target: RPS9 (human, UniProt P46781 2-194); assay: as above
# Experimental: as §1, §2
# [7] = target: T6, FKBP10 (human, UniProt Q96AY3 27-582); assay: as above
# T6 construct: also called NP_068758.3 (+1)
# T6 sequence (Q96AY3 27-582 limits assumed): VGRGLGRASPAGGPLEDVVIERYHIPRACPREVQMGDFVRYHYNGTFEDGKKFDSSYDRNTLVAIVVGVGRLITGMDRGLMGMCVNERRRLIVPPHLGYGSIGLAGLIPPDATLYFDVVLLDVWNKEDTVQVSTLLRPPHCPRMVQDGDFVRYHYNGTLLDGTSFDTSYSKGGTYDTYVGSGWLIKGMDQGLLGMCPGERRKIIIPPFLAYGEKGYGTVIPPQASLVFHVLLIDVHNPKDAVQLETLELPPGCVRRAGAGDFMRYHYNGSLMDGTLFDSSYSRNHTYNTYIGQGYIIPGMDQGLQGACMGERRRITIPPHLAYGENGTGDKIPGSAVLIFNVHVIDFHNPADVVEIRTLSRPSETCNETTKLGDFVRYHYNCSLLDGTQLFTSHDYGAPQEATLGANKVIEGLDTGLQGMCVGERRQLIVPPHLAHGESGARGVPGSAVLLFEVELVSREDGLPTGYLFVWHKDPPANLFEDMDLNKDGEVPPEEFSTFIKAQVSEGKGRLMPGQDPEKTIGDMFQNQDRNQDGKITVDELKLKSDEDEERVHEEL
# Experimental: as §1, §2
# [8] = target: RPS5 (human, UniProt P46782 1-204); assay: as above
# Experimental: as §1, §2
# [9] = target: T1, PRDX2; assay: as above
# Experimental: as §1, §2
# [10] = target: T2, PRDX1; assay: as above
# Experimental: as §1, §2
# [11] = target: T3, TGM3; assay: co-IP/MS, anti-FLAG IP of C-FLAG B3GNT2 cell lysate
# Experimental: as §1, §2
# [12] = target: T4, PIP; assay: as above
# Experimental: as §1, §2
# [13] = target: RPS12 (human, UniProt P25398 2-132); assay: as above
# Experimental: as §1, §2
# [14] = target: RPS7 (human, UniProt P62081 1-194); assay: as above
# Experimental: as §1, §2
# [15] = target: T7, PCBP1 (human, UniProt Q15365 1-356); assay: as above
# T7 construct: also called NP_006187.2
# T7 sequence (Q15365 whole entry): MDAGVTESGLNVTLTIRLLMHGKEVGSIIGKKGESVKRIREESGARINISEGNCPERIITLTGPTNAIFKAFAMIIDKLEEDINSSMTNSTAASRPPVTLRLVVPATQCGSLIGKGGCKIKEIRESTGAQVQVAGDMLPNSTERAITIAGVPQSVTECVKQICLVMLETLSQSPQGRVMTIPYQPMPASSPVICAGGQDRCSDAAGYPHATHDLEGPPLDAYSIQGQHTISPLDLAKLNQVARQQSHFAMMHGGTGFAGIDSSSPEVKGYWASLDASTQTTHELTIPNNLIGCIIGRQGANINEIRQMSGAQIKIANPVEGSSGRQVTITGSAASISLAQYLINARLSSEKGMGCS
# Experimental: as §1, §2
# [16] = target: CAPZA1 (human, UniProt P52907 2-286); assay: as above
# Experimental: as §1, §2
# [17] = target: T8, LRP1 (human, UniProt Q07954 20-4544, limits assumed); assay: as above
# T8 construct: also called NP_002323.2 (+1)
# Experimental: as §1, §2
# [18] = target: T9, PSMA5 (human, UniProt P28066 1-241); assay: anti-FLAG co-IP from lysate of C-FLAG B3GNT2 cells, mass spectrometry
# T9 construct: also called NP_002781.2
# T9 sequence (P28066 whole entry): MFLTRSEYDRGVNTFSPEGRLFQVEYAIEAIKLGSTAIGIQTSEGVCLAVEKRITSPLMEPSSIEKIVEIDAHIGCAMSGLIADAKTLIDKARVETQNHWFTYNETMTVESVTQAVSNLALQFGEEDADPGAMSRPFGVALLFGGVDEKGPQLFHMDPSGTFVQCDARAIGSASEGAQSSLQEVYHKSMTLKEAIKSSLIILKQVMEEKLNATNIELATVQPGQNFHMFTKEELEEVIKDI
# Experimental: as §1, §2
# [19] = target: T5, PSMC2; assay: as above
# Experimental: as §1, §2
# [20] = target: T10, PSMB4 (human, UniProt P28070 46-264); assay: as above
# T10 construct: also called NP_002787.2
# T10 sequence (P28070 46-264 limits assumed): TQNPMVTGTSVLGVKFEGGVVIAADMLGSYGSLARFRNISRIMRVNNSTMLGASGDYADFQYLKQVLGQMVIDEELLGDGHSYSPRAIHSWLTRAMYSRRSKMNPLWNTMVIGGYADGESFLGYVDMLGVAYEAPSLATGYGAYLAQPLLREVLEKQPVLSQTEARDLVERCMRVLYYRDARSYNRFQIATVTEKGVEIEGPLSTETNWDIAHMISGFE
# Experimental: as §1, §2
# [21] = target: T11, ERP29 (human, UniProt P30040 33-261); assay: as above
# T11 construct: also called NP_006808.1
# Experimental: as §1, §2
binder,measurement,setting,value
B1,co-IP mass spectrometry count,[1],7
same,co-IP mass spectrometry count,[2],4
same,co-IP mass spectrometry count,[3],12
same,co-IP mass spectrometry count,[4],11
same,co-IP mass spectrometry count,[5],8
same,co-IP mass spectrometry count,[6],2
same,co-IP mass spectrometry count,[7],0
same,co-IP mass spectrometry count,[8],4
same,co-IP mass spectrometry count,[9],9
same,co-IP mass spectrometry count,[10],8
B2,co-IP mass spectrometry count,[11],5
same,co-IP mass spectrometry count,[12],3
same,co-IP mass spectrometry count,[13],8
same,co-IP mass spectrometry count,[14],8
same,co-IP mass spectrometry count,[15],4
same,co-IP mass spectrometry count,[16],0
same,co-IP mass spectrometry count,[17],0
B3,co-IP mass spectrometry count,[18],0
same,co-IP mass spectrometry count,[19],0
same,co-IP mass spectrometry count,[20],0
same,co-IP mass spectrometry count,[21],0
